Measurements taken from patent US20230250157A1 (CALIFORNIA INSTITUTE OF TECHNOLOGY, published 2023).

Biological target: SARS-CoV-2 WA1 D614G spike on pseudovirus (SARS-CoV-2 WA1, UniProt P0DTC2 14-1252)
Test: cell-based or functional assay

B1: M8a-3 (antibody, V domains shown)
VH: QVQLQQPGAELVLPGASVKLSCKASGYTFTNYWMHWVKQRPGHGLEWIGEIDPFDTYIKINQKFKGKSTLTVDTSSSTAYMQLSSLTSEDSAVYYCARPDSSGYPVYFDYWGQGTTLTVSS
VL: DIVMTQSHKFMSTSVGDRVSITCKASQDVGTYIAWYQQKPGQSPKLLIYWASTRHTGVPDRFTGSGSGTNYTLTISSVQAEDLALYHCQQHYSTPYTFGGGTKLEIK
pseudovirus neutralization IC50: 0.18 µg/mL
